± gives the uncertainty stated by the source.

The source of these data is the supplement of paper PMC12042874.

This series can be described thus: amyloid nucleation score (Sup35N fusion, yeast selection) (log enrichment); library NNK3; higher = more nucleation; inactive = no reads after selection. In a few lines:
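Sup35N was fused to peptides of 20 random codons and expressed in psi-negative yeast, which were induced with 100 μM copper sulfate for 24 hours and then grown on medium lacking adenine and uracil for 7 days at 30°C. Plasmid inserts from input and output were sequenced on Illumina. The nucleation score is the DiMSum log enrichment of output over input reads, centred on the mode score of non-aggregating sequences. Sequences with under 100 input reads were left out, and random libraries had three technical output replicates.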

YGEFDTLQW: the amyloid nucleation score entry is “inactive”.
Turning to AVVRDDLVSCPPSAATLQIP, the amyloid nucleation score result was “inactive”.
Consider NKVVMGNLWGPPVFDRCDKG, for which the amyloid nucleation score result is “inactive”.
SMRYVTLKPNF: the amyloid nucleation score entry was “inactive”.
As to GQLYVMSRSDQARDSFELDA, the amyloid nucleation score result is “inactive”.
With QELQYLKAGSKF, the amyloid nucleation score entry is “inactive”.
As to SYYISMVYTVMSMNASFSRS, the amyloid nucleation score result was “inactive”.
In turn, NLFVNL showed an amyloid nucleation score of 1.13 ± 0.15.
In the case of LKNVTDKMHTYLRLEGSRHV, the amyloid nucleation score result was “inactive”.
For the substance LFARRVGSYCVIVCQPVLWE, the amyloid nucleation score result is “inactive”.
The result for IYNNSYKFCILLVTWTIEVQ reads “inactive”; that for FDFESRKLVVGICGCSQAGL, “inactive”.
As to TGHMTDIYYELSHGVEPKGL, the amyloid nucleation score result was “inactive”.
For the substance RKYGTLCKGCVL, the amyloid nucleation score entry is “inactive”.
For the substance RWGLYLR, the amyloid nucleation score entry was “inactive”.
Take NSSSNE: the amyloid nucleation score worked out at 1.01 ± 0.22.
The result for NVRLYHFSGET reads 0.031 ± 0.41; that for IPTSQAEFCCFSGAKHFQIV, “inactive”.
HRLCSHYVFTGCPSNMRQCF came in with an amyloid nucleation score of 0.083 ± 0.28.
Take CNKYMKVCLGMGKVQTKNGV: the amyloid nucleation score entry is “inactive”.
On to VSSSVVYTFVMSSLLGVDNE, for which the amyloid nucleation score entry was “inactive”.
LIHICHRVQPHMSCDCVAMW: the amyloid nucleation score result is “inactive”.
Under ITGFLFRVVW stands 0.829 ± 0.13; under MCDCL, “inactive”.
Take SWIVNKVF: the amyloid nucleation score entry is “inactive”.
With HMLHVWYFLGRQYANTFCYM, the amyloid nucleation score result is “inactive”.
The result for YCLKLLGGFC reads 0.657 ± 0.27.
On to ILRNMDGRRNSVVRDVVRVK, for which the amyloid nucleation score entry was “inactive”.
In the case of HIYIVKSVCILCIWPCGLTE, the amyloid nucleation score was 2.86 ± 0.058.
Take TFKHTFNNVHCSGAFTGSQL: the amyloid nucleation score turned out to be 0.161 ± 0.25.
The result for ELVQKGHGIEWERHGVLFGE reads “inactive”.
LSHSRSNL: the amyloid nucleation score entry is “inactive”.
In the case of SREIYSMVMQSHLVQWGVIA, the amyloid nucleation score result was “inactive”.
TCSKVFQYG: the amyloid nucleation score result is “inactive”.
Under GTSICDVKFAPLYSE stands “inactive”; under LLVYAVENPGLVWNSRHGLF, -1.37 ± 2.5.
LNYIIRRLIVIILFSQHQYY: the amyloid nucleation score entry was “inactive”.
The result for SRWEKSFALICAS reads “inactive”; that for VEKCSVCLPTFEGWPLSKRF, “inactive”.
Substance TPVTGQQWNCFCTILHSE returned an amyloid nucleation score of 2.52 ± 0.08.
On to HCCFVWERRNACGMVSSWMT, for which the amyloid nucleation score result was “inactive”.
RVNRRWDSLS: the amyloid nucleation score entry was “inactive”.
With VLLKRL, the amyloid nucleation score entry is “inactive”.
Take SCGLFRLNMDIRVSNKNFWG: the amyloid nucleation score was 0.991 ± 0.12.
For KFGFCDIMKGLFRRMLGLKV, the amyloid nucleation score is -1.06 ± 1.3.
MKVIRTYRGYGCQDWIELLF: the amyloid nucleation score result was “inactive”.
The substance EGARSGKENGSGKPYRPLGV showed an amyloid nucleation score of 0.528 ± 0.22.
As to SFGMCTMYFYLNVCMAKGAR, the amyloid nucleation score result is “inactive”.
Consider LCCTRTSHIMSRVARMAFRV, for which the amyloid nucleation score entry was “inactive”.
Under FILQGFPE stands “inactive”; under EGKIHNSRLGYFQRRLIVS, “inactive”.
Under RIVYCSFTKVG stands “inactive”; under QWLAEGYT, “inactive”; under ILLVWNSMLYYTLDTCVNCC, “inactive”.
As to KMCLLFVREFRMLFACVWVT, the amyloid nucleation score result was “inactive”.
As to WYFWVFCSFKLENCAPVNQW, the amyloid nucleation score result was “inactive”.
With SSANVDMPVDCDTRWTCW, the amyloid nucleation score result was “inactive”.
Under TVPIILVSTVRANMFFETRN stands 1.54 ± 0.093; under LAIILLFAVRLCRDANGDAM, “inactive”.
On to SYMLWYSS, for which the amyloid nucleation score entry was “inactive”.
ETMVIDWCSTVDRVR: the amyloid nucleation score result is “inactive”.
The result for RSVKSIDSHMAKESF reads “inactive”; that for YSVIYDRSYRIV, “inactive”; that for FIPYYRCDQMLSGILVRFFS, “inactive”.
As to NLVGTMATRYCRAHQEAREW, the amyloid nucleation score result was “inactive”.
SSHVQRMMRLMVAN: the amyloid nucleation score entry was “inactive”.
Consider PVLSRITFSNSSDRI, for which the amyloid nucleation score entry was “inactive”.
Turning to LTNLCES, the amyloid nucleation score result is “inactive”.
Consider VRSTTQHVHLICCNEYFRH, for which the amyloid nucleation score turned out to be 2.82 ± 0.052.
For the substance RWMLSDGFIMKRRTSFFNDM, the amyloid nucleation score result was “inactive”.
As to IRMYNSSERFYSPDKRHVPK, the amyloid nucleation score result is “inactive”.
Regarding SWDYSKRNCSVEKVWTELNF, the amyloid nucleation score result was “inactive”.
Under KAPNPI stands “inactive”; under MYLFRENGHQSGNVY, “inactive”; under TFRWFDGIKTLMMD, “inactive”.
Regarding HQNSCDMLFRLSSTYLWGRA, the amyloid nucleation score result is “inactive”.
Consider GPMNLMRSVRYALSRSYLLL, for which the amyloid nucleation score result was “inactive”.
As for NLTVGSTILIPC, the amyloid nucleation score result is “inactive”.
With FSLFLTLFHFFHTRLAACLL, the amyloid nucleation score entry is “inactive”.
The result for RVFRLCIRFSHA reads 0.391 ± 0.23; that for LKDCTCEFIFMTGKYCIYFR, -0.495 ± 0.76; that for SLGSNEKYWERRVSSHNWTT, “inactive”.
Take SIINLDLTAGHRYFYSSRSR: the amyloid nucleation score stood at 2.11 ± 0.071.
Under SRFDRVMQNDCCVYSCHIII stands “inactive”; under DSMCRYV, 0.893 ± 0.12.
As to NRYLVVLRSCS, the amyloid nucleation score result was “inactive”.
Under SLSILT stands “inactive”; under DCSFMPTLYLGPTTFFFWHL, 2.25 ± 0.064.
The result for HWIISYQAGCFHLNTFKIMY reads “inactive”.
Under RYEFS stands “inactive”.
As to TNMVMA, the amyloid nucleation score entry is “inactive”.
Regarding RMRLRVSVILGA, the amyloid nucleation score is 0.997 ± 0.11.
Consider RTTKSNYTVLLDQNIPLSPT, for which the amyloid nucleation score entry is “inactive”.
The result for WRRMTEPMSAKGLTNYLEST reads “inactive”; that for VRNNVCRPVCYGWNGGYITV, “inactive”; that for WYHVSHVYYGVGIGLRD, “inactive”.
The result for VTVSPWLFFVWNDGLCSARL reads 1.05 ± 0.096.
Turning to GVPIWCEKYKLILQKNWLFK, the amyloid nucleation score result was “inactive”.
Regarding ILFRYFISGMVVWGDNMENE, the amyloid nucleation score entry is “inactive”.
Turning to VGTMKNLERVRVCYD, the amyloid nucleation score result was “inactive”.
With ISTFVLNDAMLRRWET, the amyloid nucleation score result was “inactive”.
In the case of YRYHIMVMKAVIDTNSRKGW, the amyloid nucleation score result was “inactive”.
Take APNFCWSLFYVDSNVEFERL: the amyloid nucleation score entry was “inactive”.
Under EIMGICTLTVIFCKC stands 1.58 ± 0.1.
Under SSALRMYVCSAWG stands “inactive”; under SSVRMRISFMINGRQTA, 0.833 ± 0.15.
For RPPMDEICSNFRSRTLNQSK, the amyloid nucleation score entry was “inactive”.
Take SENSRRSLSAYFLQYGLWFW: the amyloid nucleation score result was “inactive”.
The result for YSVVNDSGIFFYVGHHVFAV reads “inactive”; that for VQNNFGVSNAGNGLCWGCIC, 2.65 ± 0.051; that for QLCGLAAWDFFCLVGHILKK, 1.23 ± 0.095.
The substance RLAFVHKMTLRMSRERYLAI came in with an amyloid nucleation score of -0.009 ± 0.35.
Consider NLLWIISHNMNGVSRIISSV, for which the amyloid nucleation score entry was “inactive”.
As for IYCWCSVIDTGRAARLRVIK, the amyloid nucleation score result was “inactive”.
On to PKSYRSGSAVFLGFVSWYRW, for which the amyloid nucleation score result is “inactive”.
Turning to RYSDHRGIKAVGFAHCFL, the amyloid nucleation score result was “inactive”.
The result for MTWNVGRADGFLRSSCSNFR reads “inactive”; that for KSSWAIKSSNGTW, “inactive”.
The result for RAFLPYYAGYEDRTQSWL reads “inactive”; that for CHISFWLTLWGRSNSEMWMD, “inactive”.
For WSRMTKSHKCRWDQLVTVHG, the amyloid nucleation score entry was “inactive”.
As for RMPNSTFGVGWETGFQHSQG, the amyloid nucleation score result was “inactive”.
Turning to FSLVAKMSFESLATNRWDSR, the amyloid nucleation score came out at 1.41 ± 0.15.
On to VGNFYVSNVAFLWVK, for which the amyloid nucleation score result is “inactive”.
SYCGSSASSASTLEIRYTLA had an amyloid nucleation score of 0.875 ± 0.12.
In turn, YINRKLRDACRRYVFGW displayed an amyloid nucleation score of 0.05 ± 0.89.
Consider CSGQVQ, for which the amyloid nucleation score result was “inactive”.
Turning to YSLGITGPHEAHQIVNLPWW, the amyloid nucleation score result was “inactive”.
On to RFVTSLYDMLSI, for which the amyloid nucleation score entry is “inactive”.
Consider ELGMQSNGSSNDRLERRRIR, for which the amyloid nucleation score result is “inactive”.
The result for FLRKFRLTLIYVTRASWLGG reads “inactive”.
